Measurements taken from the supplement of paper PMC10567573.

B1: SPATS1 (parent)
chain: GRKKYDIDPRNGIPKLTPGDNPYM
B2: ZNF8 (parent)
chain: RTHTGEKPYTCSVCGKSFSRTTCL

Variants of: B1
Assay: protein stability index of a GFP-peptide fusion (GPS, HEK-293T) (PSI 1-6); higher = more stable
Conditions: c terminus: a fixed tail appended
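Further: lentivirally expressed fusions sorted by FACS into six bins by GFP to DsRed ratio, PSI derived from sequencing read proportions per bin multiplied by bin number.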

Variant | protein stability index
R10V | 2.8
P22N | 3.64
P22V | 3.42
K4H | 3.2
P9R | 3.74
P22A | 4.01
P9F | 2.8
I7C | 3.93
M24G | 3.5
P9M | 3.28
P9N | 3.49
T17A | 3.58
D6E | 3.4
K15I | 3.69
N11R | 3.28
K3M | 3.2
P9V | 3.36
G12I | 2.77
N21F | 2.78
P18G | 2.98
G1W | 2.78
L16P | 3.67
I7T | 3.75
K4Y | 3.22
N21H | 3.33

Variant | protein stability index
G19E | 4.69
K3I | 3.39
Y5E | 4.86
G19Q | 3.35
P18I | 3.27
D6C | 2.89
I13W | 3.44
I13N | 4.1
N21E | 4.6
N11T | 3.46
G19T | 3.59
M24F | 3.1
I13E | 4.45
P22S | 3.54
G19Y | 2.79
D6V | 2.52
D8P | 3.42
P14L | 2.94
N11A | 3.05
Y23S | 3.94
R2W | 2.73
I7E | 4.5
N11W | 2.48
D20A | 3.58
G1C | 2.83

Variant | protein stability index
L16N | 4.24
P22C | 3.34
D8E | 3.72
D8R | 3.08
T17E | 4.33
L16F | 3.11
K4A | 3.38
K4N | 3.88
G19D | 3.83
R2Y | 3.15
N11C | 2.77
R2K | 3.61
L16G | 4
P18C | 3.38
M24Q | 4.02
I13S | 3.88
K15M | 3.69
L16R | 3.59
I7R | 4.22
R2Q | 3.59
G19C | 3.21
D20S | 3.79
L16M | 3.67
N21S | 3.72
Y5M | 3.65

Variant | protein stability index
P14N | 3.55
D20W | 2.41
N11Q | 3.41
Y23E | 4.61
K3C | 2.29
P14I | 2.96
P18N | 4.09
M24P | 3.98
Y5T | 4.11
G19S | 3.59
P9Q | 3.67
R2L | 3.12
G12D | 3.3
P14C | 2.95
G19R | 3.35
P14F | 2.4
Y5V | 4.04
P22D | 3.91
L16E | 4.32
P9W | 2.52
R10Q | 4.14
R10F | 2.7
D6N | 3.36
P18R | 3.24
L16T | 3.98

Variant | protein stability index
P18L | 2.81
R2I | 3.25
G12R | 3.42
N21R | 3.41
R2P | 3.73
K15F | 2.97
P22G | 3.53
I7A | 3.53
P18Q | 3.86
K3Q | 3.8
D20I | 2.18
T17K | 3.57
P18Y | 2.46
D8V | 3.08
M24Y | 3.73
K4I | 3.33
T17P | 3.23
N11Y | 4.13
T17M | 3.02
K15P | 3.62
P22I | 3.64
M24N | 4.11
L16A | 4.09
I7H | 3.81
K3T | 3.73

Variant | protein stability index
N21P | 3.54
G12Y | 2.8
K15D | 3.88
R10A | 3.48
D20Y | 2.49
D8G | 2.93
M24E | 4.56
I7W | 2.91
P18V | 3.34
D8S | 3.33
P14G | 3.38
D8M | 3.18
I13P | 3.86
K4F | 2.62
Y23K | 4.41
D6G | 3.51
K4Q | 3.23
P22K | 3.89
G12V | 3.46
D20T | 3.12
D6W | 2.38
P9E | 4.19
G12L | 3.09
Y23M | 3.82
R2F | 3.4

Variant | protein stability index
P22F | 3.02
I13D | 4.92
G19P | 3.73
P14T | 3.27
G19V | 2.88
P22H | 3.74
D20K | 3.74
T17V | 3.2
N21V | 3.14
I13A | 4.14
T17Q | 4.21
P18T | 3.85
Y5D | 4.64
K4V | 3.29
N11P | 3.8
R2E | 4.15
N11L | 3.06
Y23D | 4.84
K15R | 3.63
D20Q | 3.36
K3G | 3.53
Y23G | 4.04
G12F | 3.34
G12T | 3.22
K3N | 3.32

Variant | protein stability index
K3L | 3.19
P22Q | 3.98
K4D | 3.83
R10L | 3.53
G12K | 3.58
N11I | 3.22
P18A | 3.86
N21D | 4.23
R10D | 4.41
G12M | 3.08
G1P | 3.51
K4P | 3.52
P22W | 2.62
P18K | 3.62
K4T | 3.48
D20N | 3.12
R2S | 3.66
N11M | 3.17
P14Q | 3.42
G12S | 3.57
K3F | 2.83
K15L | 3.29
N21C | 3.34
K4L | 2.91
R2C | 3.3

Variant | protein stability index
K3V | 3.67
G19M | 2.81
K15H | 3.55
M24K | 4.03
P9K | 3.27
Y5L | 4.43
R2N | 3.44
G1Y | 3.31
P22E | 3.85
P14R | 2.99
N11K | 3.59
N21K | 3.51
D8C | 3.1
L16C | 3.44
K4S | 3.83
N21M | 3.32
K15Q | 4.05
G1E | 3.96
T17H | 3.34
G1S | 3.65
K3H | 3.67
N11H | 3.54
Y23F | 3.37
G1V | 3.68
G1I | 2.66

Variant | protein stability index
Y23P | 4.41
P18W | 2.73
Y23I | 3.72
G12P | 3.9
G12W | 2.83
G19I | 3.28
N21G | 3.96
G19K | 3.31
K4C | 2.81
D6K | 3.33
K3A | 3.2
Y23L | 4.48
Y5I | 3.4
N11G | 3.53
D8L | 3.16
G19N | 3.76
I7K | 4.19
D20E | 3.65
I13G | 3.78

Variants of: B2
Assay: as above
Conditions: c terminus: a fixed tail appended

Variant | protein stability index
R1A | 2.43
R1C | 4.33
R1D | 2.85
R1E | 3.13
R1F | 2.22
R1G | 3
R1H | 2.85
R1I | 2.59
R1K | 2.24
R1L | 1.94
R1M | 2.61
R1N | 2.6
R1P | 2.64
R1Q | 2.33
R1S | 2.34
R1T | 3.04
R1V | 3.18
R1Y | 2.51
T2A | 2.32
T2C | 3.48
T2D | 2.93
T2E | 2.85
T2F | 2.69

Variant | protein stability index
T2G | 2.52
T2H | 2.52
T2I | 1.86
T2K | 2.76
T2L | 2.1
T2M | 2.39
T2N | 2.49
T2P | 2.2
T2Q | 2.66
T2R | 2.19
T2V | 2.55
T2W | 2.2
T2Y | 2.07
H3A | 1.86
H3C | 2.77
H3D | 2.82
H3E | 2.72
H3F | 2.08
H3G | 2.86
H3I | 2.21
H3K | 2.05
H3L | 1.88
H3M | 2.37

Variant | protein stability index
H3N | 2.72
H3P | 2.46
H3Q | 2.2
H3R | 2.15
H3S | 2.66
H3T | 2.44
H3V | 2.82
H3W | 1.82
H3Y | 2.27
T4A | 2.1
T4C | 2.32
T4D | 2.49
T4E | 3.43
T4F | 1.69
T4G | 2.44
T4H | 2.99
T4I | 2.13
T4K | 3.02
T4L | 2.18
T4M | 2.16
T4N | 3.12
T4P | 2.22
T4Q | 2.31

Variant | protein stability index
T4R | 2.66
T4S | 2.77
T4V | 1.93
T4W | 1.83
T4Y | 2.27
G5A | 2.3
G5C | 2.84
G5D | 2.62
G5E | 3.25
G5F | 2.64
G5H | 2.25
G5I | 3.05
G5K | 2.78
G5L | 2.29
G5M | 2.48
G5N | 2.66
G5P | 2.4
G5Q | 2.36
G5R | 2.5
G5S | 3.15
G5T | 2.4
